Test results published in patent US12472269B2, “Liver-specific inducible promoters and methods of use thereof” (ASKBIO INC., priority 2019, dated 2025).

Key:
[1] = test system: Huh7 and ARE primary cells; assay: Effect of AAV ITRs: pAAV constructs transfected into Huh7 and ARE primary cells, compared with pGL4.10; type: cell-based, human; conditions: mean of 3 biological replicates
Source text: Following from Example 3, it was decided to take PB1-MinTK and PB1-2-MinTk forward for in vivo studies. To facilitate this the two aforementioned constructs were cloned into pAAV vector (Takara, Clontech) to allow for the preparation of AAV viruses. The inserts where cloned using restriction digest of the pAAV plasmid and PCR amplification of the original pGL4.10 constructs.
We investigated the effect of the Inverted Terminal Repeats (ITRs) on the activity of the promoters. This was done as we have observed interference from the AAV ITRs in other projects. To this end, the pAAV-PB1-MinTk and pAAV-PB1-2-MinTk were transfected into Huh7 and ARE primary cells as previously described and their activity assessed.

CD1 male mice = assay: In vivo bioluminescence imaging of mice injected with AAV9 constructs, induction by phenobarbital
Procedure: • Seed HEK 293-AAV cells in 15 cm plates. To be 70-80% confluent on the day of transfection • Final volume on each plate: 15 ml Day 2: Prepare Transfection Mix: • DNA mix/plate: pDG9 (Packaging plasmid for AAV9): 10.5 μg/pHGTI (Ad. Helper plasmid): 31.5 μg/Vector plasmid: 10.5 μg/Prepare in serum free DMEM/Optimem • Transfer mix/plate: PEI: 125 μl/Prepare in serum free DMEM/Optimem • Add DNA mix into transfection mix. Mix and leave at room temperature for 15-20 mins. • Add 3 ml of transfection mix to each plate drop-wise and gently distribute. Incubate for 24 h. Day 3: • Replace media with 15 ml DMEM supplemented with P/S and 2% FCS. Leave for 48 h. Day 5: • Collect supernatant and pool in 50 ml tubes, 25 ml each tube. Store at −20° C. • Collect cells: Add 5 ml of PBS to each plate→scrape and collect in 50 ml tubes. • To wash plates, add another 1 ml of PBS and collect. • Spin at 1500 rpm for 5 mins. • Remove supernatant and resuspend pelleted cells in 1 ml/plate TD lysis buffer→pool • Store at −80′C. Endonuclease Treatment Cells: • Freeze and thaw pellets 5 times→˜20 mins at 37° C. then ˜20 mins in dry ice (or −80° C.). • Add 25 μl/ml cells of 20% Deoxycholate (or 50 μl/ml of 10% Deoxycholate). • Add 8 μl/ml cells of benzonase. • Incubate at 37° C. for 30 mins. • Spin at 4 Krpm for 30 mins. • Filter supernatant using […] filters. • Store at 4° C. for up to 24 h. Supernatant: • Add 2.5 μl/25 ml supernatant of benzonase. • Add 50 μl/25 ml supernatant of MgSO4. • Incubate at 37° C. for 30 mins. • Spin at 4 Krpm for 30 mins. • Filter supernatant using […] filters. • Store at 4′C for up to 24 h. Hplc Purification • Place both lines in 20% ETOH→template→system wash • Put line A in PBS and line B in Glycine→template→system wash • Place the column in the machine→manual run→flowrate: 5 ml/min→Run for 25 ml or until the UV line is flat. • Prepare FACS tubes (10 for cells and more for supernatant): add 30 μl/tube Tris→put in the machine to collect vectors. • Place the waste lines in a separate tube to be able to run them again through the column. • Run samples (flowrate low, depending on how fast the system and how concentrated the sample is; for cells it is slower, for supernatant it is higher). • After running the waste through the column, wash with PBS→flowrate: 5 ml/min until the UV line is flat. • Set→fraction size: 1 ml; Flowrate: 1 ml/min; concentration % B: 100%→run. • Start collecting: Look for the peak. The peak indicates vector purification. Mark the tubes containing these vectors. • Save programme before exiting. • Wash with PBS→75 ml, 5 ml/min • Wash with Na3PO4 (to store the column in)→75 ml, 5 ml/min • Remove column and store at 4° C. • Wash the machine with PBS→template→system wash • Wash the machine with 20% ETOH→template→system wash • Put both lines in 20% ETOH and shut down • Add 2 L of PBS into a big bucket and put the Dialysis cassette (Side-A-Lyzer; Thermo scientific) to prime. • Collect the vectors from the marked FACS tubes using a syringe and needle and add into the dialysis cassette→remove excess air from the membrane, carefully place the rubber on top of the cassette and let it float in the PBS-containing bucket→leave over night at room temperature on a slow rotating rotor. Next Day: • Prime membrane by adding 5 ml PBS onto a centrifugal filter (Amico Ultra 15; MERCK)→spin for 5 mins at 4 Krpm • Remove excess PBS from inside the membrane. • Take vectors out from the cassette and load onto the membrane→spin for 5 mins at 4 Krpm • Wash the membrane with the vectors inside few times, then collect into 2 ml centrifuge tube filter 0.22 μM (Spin-X; COSTAR) • Spin for 3 mins at 13 Krpm. • Remove filter and aliquot: 1×100 μl (for injection), the rest in 10-2 μl aliquots. • Store in −80° C. • Virus quantification was performed using qRT-PCR with primers and probes for the luciferase gene. Mice Experiment […]

AXOL ARE hepatocytes = assay: Luciferase expression from pAAV constructs in AXOL ARE hepatocytes without CITCO, with CITCO and after CITCO withdrawal; type: cell-based, human; conditions: pAAV vector
Procedure: Luciferase expression from the PB1-MinTK and PB1-2-MinTK constructs in the pAAV vector in AXOL ARE hepatocytes is inducible by CITCO (1 μM) but reduces after removing CITCO as shown in FIG. 5.

AXOL ARE-hepatocytes = assay: Luciferase expression from PBREM promoters in AXOL ARE-hepatocytes, induction by CITCO; type: cell-based, human; conditions: induction with CITCO, mean of 3 biological replicates
Source text: Axol Assay-Ready Expanded (ARE) Hepatocytes are primary human hepatocytes that have been expanded in vitro. Large batch sizes (up to 2000 vials) are available, ensuring a reliable, ready-to-use and consistent source of primary hepatocytes. ARE Hepatocytes express CYP enzymes, are metabolically functional, are polarized and can be infected by the Hepatitis C virus. AXOL ARE-hepatocytes express CAR negating the need to transfect with a CAR-expressing plasmid.
• AXOL assay-ready expanded (ARE) hepatocytes (Axol, ax3701) • ARE hepatocyte thawing medium (Axol, ax3705) • ARE maintenance medium (Axol, ax3710) • Virimer red transfection reagent (Lipocalyx, VR04-02-15) • CITCO, lucifierase, β-galactosidase and BCA kits as described above
ARE hepatocytes were cultured and transfected as described in the manufacturer's manual. 200,000 cells were seeded in 2 ml culture medium in collagen-coated 6 well plate. The cells were incubated for 4 h at 37° C. and 5% CO2 for sufficient adhesion. 200 μl of transfection mixture containing the DNA to be transfected (PB1-MinTK/PB1-CMV/PB1-SV40 operably linked with luciferase and β-galactosidase containing promoter) was added and the cells were incubated on an orbital shaker at 100 rpm for three hours at 37° C. and 5% CO2. 3 hrs after transfection CITCO was added to the appropriate wells. Cells were incubated under static conditions at 37° C. and 5% CO2 overnight and in the morning the medium was replaced with fresh ARE Hepatocyte Maintenance Medium. Readout was 24 hrs after induction. […]

[2] = AAV9, phenobarbital intraperitoneally

B1: PB1-2-MinTK: promoter: 3×PBREM and min-TK promoter, SEQ ID NO: 11 (nucleic acid)
DNA: TCTGTACTTTCCTGACCTTGGCACAGTGCCACCATCAACTTGCCTGACACCCATTACTCGCATCCATTCTCTCTGTACTTTCCTGACCTTGGCACAGTGCCACCATCAACTTGCCTGACACCGCACTGAAGGTCCTCAATCGTCTGTACTTTCCTGACCTTGGCACAGTGCCACCATCAACTTGCCTGACACCGCTGGGAGTTCGTAGACGGAGATCCGGCCCCGCCCAGCGTCTTGTCATTGGCGAATTCGAACACGCAGATGCAGTCGGGGCGGCGCGGTCCGAGGTCCACTTCGCATATTAAGGTGACGCGTGTGGCCTCGAACACCGAGCGACCCTGCAGCGACCCGCTTAACAGCGTCAACAGCGTGCCGCAGATCTCGAGGAGCTTGGCGAGATTTTCAGGAGCTAAGGAAGCTAAAC
modifications: PB1-2-MinTk (3xPBREM)
[1]
  induction of luciferase expression across pGL4.10 and pAAV vectors and cell types: comparable across vectors and cell types
CD1 male mice; 0 hrs
  luciferase expression before induction: no expression of the luciferase gene
CD1 male mice; [2]
  time at which induction is complete: 48 h
  time of maximal activity after induction: 24 h
CD1 male mice; AAV9 via tail vein
  tissue distribution of luciferase expression: confined to the liver
AXOL ARE hepatocytes; CITCO (1 μM)
  luciferase expression with CITCO: inducible
AXOL ARE hepatocytes; CITCO withdrawal
  activity of the promoter after removal of CITCO: almost baseline levels
AXOL ARE-hepatocytes
  induced luciferase expression as a ratio to CMV-IE: 4.1
